Experimental findings from US6998239B1, “Method for identifying a modulator of the binding of CCX CKR polypeptide to a chemokine” (ChemoCentryx, Inc., priority 1999, dated 2006) are described below.

Entries after “also recorded” stand apart in the source; their conditions may differ.

Assay [1] deals with T1, CCX CKR (Homo sapiens, UniProt Q9NPB9).
T1 construct: Full length CCX CKR expression constructs were made in pIRESpuro expression vector; expressed in transfected cells
T1 sequence (Q9NPB9 1-350): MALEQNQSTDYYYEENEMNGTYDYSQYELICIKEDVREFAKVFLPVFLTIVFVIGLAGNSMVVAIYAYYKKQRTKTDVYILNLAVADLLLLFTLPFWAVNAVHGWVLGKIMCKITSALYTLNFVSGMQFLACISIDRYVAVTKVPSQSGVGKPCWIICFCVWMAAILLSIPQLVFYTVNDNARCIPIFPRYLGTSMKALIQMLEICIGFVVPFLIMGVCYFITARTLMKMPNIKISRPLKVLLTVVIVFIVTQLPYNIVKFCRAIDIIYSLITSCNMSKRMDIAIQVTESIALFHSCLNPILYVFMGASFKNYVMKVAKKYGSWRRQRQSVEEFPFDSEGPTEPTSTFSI
As to the kind of experiment: Radioligand binding competition with Scatchard transformation (binding constants). The note with it: for Affinity class of CCX CKR ligands (summary of Examples 4-6): summary statement. The text has this:
(§1) In one embodiment, binding is detected as described by Dairaghi et al., 1997, J. Biol. Chem. 272:28206-209 (incorporated by reference in its entirety for all purposes) substituting CCX CKR transfectants for the CCR3 transfectants). In one embodiment, binding is detected using the filter based technique described by Dairaghi et al., 1999, J. Biol. Chem. 274:2156 (incorporated by reference in its entirety for all purposes), e.g., as shown in FIG. 4. Briefly, this technology employs expanded, efficiency-maximized radioligand binding utilizing filtration protocols. In these assays, 1×10^5 CCXCKR-293 HEK cells are incubated with […] (MlP3beta) (final concentration of ˜0.05 nM) in the presence of unlabeled chemokine for 3 h at 4° C. in 25 mM HEPES, 140 mM NaCl, 1 mM CaCl2, 5 mM MgCl2, and 0.2% bovine serum albumin, adjusted to pH 7.1. Reactions were aspirated onto PEI-treated GF/B glass filters using a cell harvester (Packard). Filters are washed twice (25 mM HEPES, 500 mM NaCl, 1 mM CaCl25 mM MgCl2, adjusted to pH 7.1) and scintillant (e.g., MicroScint 20; 50 μl) is added to dried filters and counted (e.g., using a Packard Topcount scintillation counter). The competition dose-response curves is analyzed by standard methods to determine IC50 values (e.g., using GraphPad Prism software (San Diego, Calif.)). Additionally, a Scatchard transformation can be used to estimate the receptor sites per cell (e.g., using WaveMetrics Igor software (Lake Oswego, Oreg.)).
(§2) Binding analysis was carried out using efficiency-maximized radioligand binding utilizing filtration protocols designated “Displace Max” (Dairaghi et al., 1999, J Biol. Chem. 274:21569). In these assays, DisplaceMax employed the simultaneous interrogation of CCX CKR transfectants by >80 distinct purified chemokines in the ability to displace radiolabeled ELC or TECK, using the protocol described (Dairaghi et al., 1999, J Biol. Chem. 274:21569).
The binding interactions identified in the primary screen were examined quantitatively by extensive radioligand binding competition to CCX CKR stable transfectants and Scatchard transformation of the displacement data (FIG. 4B). […] In each case, the murine versions of these chemokines also bound, and with even greater affinity; the apparent Kd's are listed in FIG. 4B. […] In similar experiments, murine CTACK bound the receptor with a Kd of ˜9 nM (not shown). CTACK is also referred to as CCL27, ALP, ILC, and ESkine.

In assay [2] the target is T1, CCX CKR. As to the kind of experiment: Ligand induced internalization of CCX CKR in 293 F-CCR10 cells (FACS, anti-Flag). The format is cell-based. The note with it: 100 nM chemokine, 37° C., 15 or 45 minutes. The protocol: 293 cells transfected with the Flag-CCX CKR fusion plasmid (i.e., “293 F-CCR10 cells;” see Example 3) were incubated at 37° C. with varying concentrations of chemokines (ELC, SLC, TECK, murine CTACK and MCP4) for 15 or 45 minutes. Following incubation, the cells were washed and fixed with 3% paraformaldehyde for 15 minutes on ice. The cells were stained with anti-Flag M1 antibody, followed by a PE-conjugated anti-mouse secondary antibody. FACS analysis were then carried out to determine surface expression of the receptor.
Results: A reduction in antibody binding in the presence of ligand is an indication of ligand-induced internalization of the receptor.

The target of assay [3] is T1, CCX CKR. Nature of the assay: Ligand binding fingerprint: displacement of 125I-ELC from CCX CKR stable transfectants by cold chemokines. The note with it: cold competitor 200 nM; human and murine ELC, SLC, TECK; comparable with 125I-TECK.
Description: as §1
In order to rapidly and thoroughly define a given chemokine receptor's ligand binding fingerprint, we have established an approach to comprehensively profile chemokine receptors using a large array of purified chemokines and chemokine variants. We used this approach to confirm independently the interaction of ELC and other chemokines with CCX CKR. Employing radioligand binding of ^125I-labeled-ELC or ^125I-TECK to CCX CKR stable transfectants, chemokine specificity for the new receptor was determined.
as §2

Assay [4] addresses T1, CCX CKR. Nature of the assay: Adhesion of HEK293-CCX CKR cells to immobilized ELC-stalkokine and competition by soluble chemokines. The format is cell-based. The settings on record: 5-10 ug/ml soluble recombinant chemokine as competitor. The text has this:
“Stalkokine” technology was used to :identify the chemokines bound by the CCX CKR. Briefly, immobilized native chemokines alone are incapable of capturing cells bearing cognate receptors (Imai et al., 1997, Cell 91:521). We have developed non-native chemokine structures, stalkokines, comprising chemokine moieties engineered as N-terminal attachments to extended modified mucins (Bazan et al., 1997, Nature 385:640). In one embodiment, stalkokines, harvested in the supernatants of HEK293 cells after transient transfection, are anchored to solid substrates via antibodies against carrier domains (e.g. poly-His epitopes) engineered to the carboxyl terminus, leaving the chemokine domain free to interact with candidate orphan receptors.
To determine ligand binding to CCX CKR, HEK293-CCX CKR cells were used to interrogate chemokine ‘stalkokines’ (SK), i.e., molecules in which discrete chemokine domains were engineered to be tethered to the end of an extended stalk structure. […] In all cases, nonadherent cells were removed by washing in PBS; remaining adherent cells were fixed with 1% glutaraldehyde, photoimaged and counted. […]

The target of assay [5] is T1, CCX CKR. As to the kind of experiment: Homologous competition binding of radiolabeled chemokine on HEK293-CCX CKR cells. The settings on record: data not shown. The text has this: Furthermore ELC-SK mediated adhesion was abolished in the presence of soluble native ELC as a competitor (FIG. 3A, top row). […] Moreover, radiolabeled ELC was used in a traditional homologous competition assay in the presence of increasing concentrations of unlabeled ELC. […] Taken together, the stalkokine-based adhesion and radiolabeled ligand binding/homologous competition assays indicate that CCX CKR is a new chemokine receptor that bound a novel compliment of chemokines.

For assay [6], the target named is T1, CCX CKR. Nature of the assay: Preliminary chemotaxis analysis of CCX CKR transfectants. The format is cell-based. The note with it: preliminary chemotaxis analyses, not shown.

B1: murine CTACK: murine chemokine CTACK, also referred to as CCL27, ALP, ILC, and ESkine (protein)
chain: LPLPSSTSCCTQLYRQPLPSRLLRRIVHMELQEADGDCHLQAVVLHLARRSVCVHPQNRSLARWLERQGKRLQGTVPSLNLVLQKKMYSHPQQQN
For the molecule B1, the “Affinity class of CCX CKR ligands (summary of Examples 4-6)” value (“Affinity class of CCX CKR ligands” below) with CCX CKR [1] was “high affinity”. The “Internalization of the receptor” value in the assay with CCX CKR [2] is recorded as “Internalization of the receptor was observed”.

B2: mMIP-1gamma: murine chemokine MIP-1γ (CCF18) (protein)
chain: QITHATETKEVQSSLKAQQGLEIEMFHMGFQDSSDCCLSYNSRIQCSRFIGYFPTSGGCTRPGIIFISKRGFQVCANPSDRRVQRCIERLEQNSQPRTYKQ
As to B2, the “Binding to CCX CKR by displacement of 125I-labeled ELC” value (shortened to “Binding to CCX CKR by displacement”) with CCX CKR [3] was “moderately”. The “Affinity class of CCX CKR ligands” value in the assay with CCX CKR [1] is on record as “lower affinity”.

B3: TECK: thymus expressed chemokine, recombinant (protein)
chain: QGVFEDCCLAYHYPIGWAVLRRAWTYRIQEVSGSCNLPAAIFYLPKRHRKVCGNPKSREVQRAMKLLDARNKVFAKLHHNTQTFQAGPHAVKKLSSGNSKLSSSKFSNPISSSKRNVSLLISANSGL
In the case of B3, the “Effect of soluble chemokine on ELC-SK mediated adhesion of HEK293-CCX CKR cells” value with CCX CKR [4] was “ablation of adhesion; also recorded: significant reduction”. In addition, the “Homologous competition of radiolabeled TECK with cold TECK” value with CCX CKR [5] is “Nearly identical results”. The “Binding to CCX CKR by displacement” value in the assay with CCX CKR [3] is recorded as “bound well”. The “Affinity class of CCX CKR ligands” value with CCX CKR [1] is given as “high affinity”. The “Internalization of the receptor” value with CCX CKR [2] was “Internalization of the receptor was observed”.

B4: vMIPII: virally-encoded chemokine from the human Kaposi's sarcoma herpesvirus HHV8 (protein)
chain: LGASWHRPDKCCLGYQKRPLPQVLLSSWYPTSQLCSKPGVIFLTKRGRQVCADKSKDWVKKLMQQLPVTAR
In the case of B4, the “Binding to CCX CKR by displacement” value in the assay with CCX CKR [3] was “lower affinity”. Moreover, in the assay with CCX CKR [1] (competition against 125I-ELC), the “Affinity for CCX CKR in multipoint competition, in words” value is reported as “moderate to low affinity”. Moreover, in the assay with CCX CKR [1], the “Affinity class of CCX CKR ligands” value is recorded as “lower affinity”.

B5: SLC: secondary lymphoid-tissue chemokine, recombinant (protein)
chain: SDGGAQDCCLKYSQRKIPAKVVRSYRKQEPSLGCSIPAILFLPRKRSQAELCADPKELWVQQLMQHLDKTPSPQKPAQGCRKDRGASKTGKKGKGSKGCKRTERSQTPKGP
Consider B5, for which the “Effect of soluble chemokine on ELC-SK mediated adhesion of HEK293-CCX CKR cells” value with CCX CKR [4] is given as “ablation of adhesion; also recorded: significant reduction”. The “Binding to CCX CKR by displacement” value in the assay with CCX CKR [3] was “bound well”. In the assay with CCX CKR [1], the “Affinity class of CCX CKR ligands” value is recorded as “high affinity”. The “Migration of CCX CKR transfectants in response to chemokine” value in the assay with CCX CKR [6] is on record as “moderate migration”. In addition, the “Internalization of the receptor” value with CCX CKR [2] is recorded as “Internalization of the receptor was observed”.
